Measured values taken from USRE49495E1, “Binding polypeptides having a mutated scaffold” (Affibody AB, priority 2013, dated 2023).
Each block holds one molecule with its values, some of them ahead of it.

Legend:
[1] = Circular dichroism, variable temperature measurement (Tm) and spectra before and after heating; format: physicochemical; conditions: His6-tagged, 0.5 mg/ml in PBS, CD at 221 nm, 20 to 90° C.
Method: Circular dichroism (CD) analysis was carried out to determine the melting temperatures (Tm) and assess potential changes in the secondary structure of the inventive polypeptides as a result of the amino acid substitutions.
Purified His6-tagged Z variants were diluted to 0.5 mg/ml in PBS. For each diluted Z variant, a CD spectrum at 250-195 nm was recorded at 20° C. A variable temperature measurement (VTM) was performed to determine the Tm. In the VTM, the absorbance was measured at 221 nm while the temperature was raised from 20 to 90° C., with a temperature slope of 5° C./min. After the VTM, a second CD spectrum at 250-195 nm was recorded at 20° C. The CD measurements were performed on a Jasco J-810 spectropolarimeter (Jasco Scandinavia AB) using a cell with an optical path-length of 1 mm.

human FcRn = molecular target: T1, human FcRn (Homo sapiens, UniProt P55899); test: Biacore 2000 comparative kinetic analysis, FcRn; format: binding; conditions: for KDInv/KDOrig: original set to 1.0
T1 construct: purchased Biorbyt orb 84388
Method: (§1) Comparative kinetic constants (kon and koff) and affinities (KD) were determined using a Biacore 2000 instrument. The target proteins human HER2-Fc (R&D Systems, cat. no. 1129-ER-050), human PDGF-Rβ (R&D Systems, cat. no. 385-PR-100/CF), human FcRn (Biorbyt, cat. no. orb 84388) and human CAIX (R&D Systems, cat. no. 2188-CA), respectively, were immobilized on the carboxylated dextran layer surface of CM5 chips (GE Healthcare). The immobilization was performed using amine coupling chemistry according to the manufacturer's protocol and using HBS-EP as running buffer. One flow cell surface on the chip was activated and deactivated for use as blank during analyte injections.
(§2) HBS-EP (HER2, PDGF-Rβ, CAIX) or a pH 6.0 Na2HPO4/citric acid buffer (126 mM Na2HPO4, 37 mM citric acid) (FcRn) was used as running buffer and the flow rate was 30 μl/min in the binding experiments performed at 25° C. as further described below.
Regeneration by three pulses of HBS-EP followed by 10 min equilibration in running buffer was applied after each analyte injection.
(§3) Kinetic constants were calculated from the sensorgrams using the Langmuir 1:1 model (HER2, FcRn, CAIX) or the 1:1 binding with mass transfer model (PDGF-Rβ) of the BiaEvaluation software 4.1 (GE Healthcare). Curves of the blank surface were subtracted from the curves of the ligand surfaces and the data from the buffer cycles were subtracted from the data of the test-sample cycles to correct for any drift in signal.

human HER2-Fc = molecular target: T2, human HER2-Fc (Homo sapiens, UniProt P04626); test: Biacore 2000 comparative kinetic analysis, HER2; format: binding; conditions: for KDInv/KDOrig: original set to 1.0; for KD(2w)/KD(0): KD after stability test relative to KD before
T2 construct: Fc; purchased R&D Systems 1129-ER-050
Method: as §1, with “A set of polypeptides showing improved stability properties in Example 12 were further assessed in terms of preserved binding capacities to their targets after introduction of alterations in the scaffold, as well as after having been subjected to the stability test, i.e. incubated at 37° C. for 2 weeks. Comparative” for “Comparative”, “injections. The immobilization level of target protein on the respective surface was approximately 850 RU for HER2, 2200 RU for PDGF-Rβ, 750 for FcRn and 580 RU for CAIX.” for “injections.”
as §2
The Z variants Z02891 (SEQ ID NO:27), Z17341 (SEQ ID NO:28), and Z17342 (SEQ ID NO:29) targeting HER2 were diluted in running buffer to final concentrations of 3.33, 10, 30 and 90 nM and injected for 5 minutes, followed by 30 minutes of dissociation in running buffer. Regeneration by four pulses alternating between 10 mM HCl and 10 mM NaOH followed by 5 min equilibration in running buffer was applied after each analyte injection.
as §3

human PDGF-Rβ = molecular target: T3, human PDGF-Rβ (Homo sapiens, UniProt P09619); test: Biacore 2000 comparative kinetic analysis, PDGF-Rβ; format: binding; conditions: for KDInv/KDOrig: original set to 1.0
T3 construct: purchased R&D Systems 385-PR-100/CF
T3 sequence (P09619 with tags, fused parts or gaps limits assumed): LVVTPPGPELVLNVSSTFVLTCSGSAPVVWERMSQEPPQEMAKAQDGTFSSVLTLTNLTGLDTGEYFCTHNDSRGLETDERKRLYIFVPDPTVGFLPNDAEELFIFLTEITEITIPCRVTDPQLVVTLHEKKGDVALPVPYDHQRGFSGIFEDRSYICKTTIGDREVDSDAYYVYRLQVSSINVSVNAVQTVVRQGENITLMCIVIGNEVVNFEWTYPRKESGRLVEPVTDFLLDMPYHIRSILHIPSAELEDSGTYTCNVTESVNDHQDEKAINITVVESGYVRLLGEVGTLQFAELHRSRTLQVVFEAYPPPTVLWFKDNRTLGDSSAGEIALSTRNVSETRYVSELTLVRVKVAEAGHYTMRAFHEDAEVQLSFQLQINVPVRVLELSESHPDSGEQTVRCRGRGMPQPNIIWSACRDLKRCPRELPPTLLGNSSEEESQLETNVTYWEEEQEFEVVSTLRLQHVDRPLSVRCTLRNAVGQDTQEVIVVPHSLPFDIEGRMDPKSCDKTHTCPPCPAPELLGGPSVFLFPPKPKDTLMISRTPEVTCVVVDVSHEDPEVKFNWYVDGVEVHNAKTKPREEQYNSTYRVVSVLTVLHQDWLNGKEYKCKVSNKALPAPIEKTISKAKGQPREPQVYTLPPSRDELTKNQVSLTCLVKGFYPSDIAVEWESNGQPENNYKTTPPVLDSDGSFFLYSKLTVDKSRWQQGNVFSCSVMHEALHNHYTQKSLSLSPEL
Method: as §1, with “A set of polypeptides showing improved stability properties in Example 12 were further assessed in terms of preserved binding capacities to their targets after introduction of alterations in the scaffold, as well as after having been subjected to the stability test, i.e. incubated at 37° C. for 2 weeks. Comparative” for “Comparative”, “injections. The immobilization level of target protein on the respective surface was approximately 850 RU for HER2, 2200 RU for PDGF-Rβ, 750 for FcRn and 580 RU for CAIX.” for “injections.”
as §2
The Z variants Z15805 (SEQ ID NO:30), Z17343 (SEQ ID NO:31), and Z17344 (SEQ ID NO:32) targeting PDGF-R13 were diluted in running buffer to final concentrations of 6.67, 20, 60 and 180 nM and injected for 5 minutes, followed by 20 minutes of dissociation in running buffer. Regeneration by three pulses of 10 mM NaOH followed by 5 min equilibration in running buffer was applied after each analyte injection.
as §3

[2] = Accelerated stability study of C5 binding polypeptides, 2 weeks at 37° C., SDS-PAGE and Reversed Phase HPLC (RPC); format: physicochemical
[3] = Three month stability test at 37° C., RPC main peak
[4] = molecular target: human FcRn (Biorbyt, cat. no. orb 84388) (human) (UniProt P55899); test: SPR Biacore 2000, FcRn on CM5 chip, pH 6.0, 1:1 Langmuir; sample (0) before stability test
[5] = molecular target: human FcRn (Biorbyt, cat. no. orb 84388) (human) (UniProt P55899); test: SPR Biacore 2000, FcRn on CM5 chip, pH 6.0, 1:1 Langmuir; sample (2w) after 2 weeks at 37 C
[6] = molecular target: human FcRn (Biorbyt, cat. no. orb 84388) (human) (UniProt P55899); test: SPR Biacore 2000, FcRn on CM5 chip, pH 6.0, 1:1 Langmuir; KD after 2 weeks at 37 C against KD before
[7] = molecular target: human FcRn (Biorbyt, cat. no. orb 84388) (human) (UniProt P55899); test: SPR Biacore 2000, FcRn on CM5 chip, pH 6.0, 1:1 Langmuir; sample (0) before stability test; reference Z10103 (0)
[8] = molecular target: human FcRn (Biorbyt, cat. no. orb 84388) (human) (UniProt P55899); test: SPR Biacore 2000, FcRn on CM5 chip, pH 6.0, 1:1 Langmuir; sample (2w) after 2 weeks at 37 C; reference Z10103 (2w)
[9] = molecular target: T4, human HER2-Fc (R&D Systems, cat. no. 1129-ER-050) (human, UniProt P04626 23-652); test: SPR Biacore 2000, HER2-Fc on CM5 chip, 1:1 Langmuir; sample (0) before stability test
T4 construct: Bought; also called human epidermal growth factor receptor 2; not shown: Fc part of the bought fusion protein

[10] = molecular target: T4, human HER2-Fc (R&D Systems, cat. no. …); test: SPR Biacore 2000, HER2-Fc on CM5 chip, 1:1 Langmuir; sample (2w) after 2 weeks at 37 C
[11] = molecular target: T4, human HER2-Fc (R&D Systems, cat. no. …); test: SPR Biacore 2000, HER2-Fc on CM5 chip, 1:1 Langmuir; KD after 2 weeks at 37 C against KD before
[12] = molecular target: T4, human HER2-Fc (R&D Systems, cat. no. …); test: SPR Biacore 2000, HER2-Fc on CM5 chip, 1:1 Langmuir; sample (0) before stability test; reference Z02891 (0)
[13] = molecular target: T4, human HER2-Fc (R&D Systems, cat. no. …); test: SPR Biacore 2000, HER2-Fc on CM5 chip, 1:1 Langmuir; sample (2w) after 2 weeks at 37 C; reference Z02891 (2w)
[14] = (0) prior to stability test, pH 6.0
[15] = (2w) after 2 weeks at 37° C., pH 6.0
[16] = KD after stability test relative to KD before
[17] = compared with original Z variant
[18] = (0) prior to stability test, comparative, not absolute
[19] = (2w) after 2 weeks at 37° C., comparative, not absolute

ka (human PDGF-Rβ; (0) prior to stability test): 5.15e+07 M/s
kd (human PDGF-Rβ; (0) prior to stability test): 0.0616 s⁻¹
Kd (human PDGF-Rβ; [18]): 1.2 nM
KDInv/KDOrig (human PDGF-Rβ; (0) prior to stability test): 6.19
ka (human PDGF-Rβ; (2w) after 2 weeks at 37° C.): 5.62e+07 M/s
kd (human PDGF-Rβ; (2w) after 2 weeks at 37° C.): 0.0623 s⁻¹
Kd (human PDGF-Rβ; [19]): 1.1 nM
KDInv/KDOrig (human PDGF-Rβ; (2w) after 2 weeks at 37° C.): 3.88
KD(2w)/KD(0) (human PDGF-Rβ; [16]): 0.93
effect of scaffold substitutions on the affinity (human PDGF-Rβ; [17]): more negative effect on the affinity
Kd (human PDGF-Rβ; range of magnitude): ~1 nM
Molecule: Z17344: inventive PDGF-Rβ binding Z variant; D36R, D37Q, S39E, N52S, D53E (AEAKYAKELIEAAAEIDALPNLTRRQWNAFIKKLVRQPEQSSELLSEAKKLSESQAPK; Engineered PDGFRbeta binding Z variant)
Tm (° C.) [1]: 42 °C

ka (human HER2-Fc; (0) prior to stability test): 894000 M/s
kd (human HER2-Fc; (0) prior to stability test): 0.00157 s⁻¹
Kd (human HER2-Fc; [18]): 1.8 nM
KDInv/KDOrig (human HER2-Fc; (0) prior to stability test): 33
ka (human HER2-Fc; (2w) after 2 weeks at 37° C.): 649000 M/s
kd (human HER2-Fc; (2w) after 2 weeks at 37° C.): 0.0015 s⁻¹
Kd (human HER2-Fc; [19]): 2.3 nM
KDInv/KDOrig (human HER2-Fc; (2w) after 2 weeks at 37° C.): 37
KD(2w)/KD(0) (human HER2-Fc): 1.31
effect of scaffold substitutions on the affinity (human HER2-Fc; [17]): more negative effect on the affinity
Kd (human HER2-Fc; range of magnitude): ~1 nM
Molecule: Z17342: inventive HER2 binding Z variant; D36R, D37Q, S39E, N52S, D53E (AEAKYAKEMRNAYWEIALLPNLTNQQKRAFIRKLYRQPEQSSELLSEAKKLSESQAPK; Engineered HER2 binding Z variant)
Tm (° C.) [1]: 62 °C

Kd [4]: 5.5 nM
koff [4]: 0.01 s⁻¹
kon [4]: 1.82e+06 M⁻¹ s⁻¹
Kd [5]: 6.3 nM
koff [5]: 0.00809 s⁻¹
kon [5]: 1.28e+06 M⁻¹ s⁻¹
KD(2w)/KD(0) [6]: 1.14
KDInv/KDOrig [7]: 1.93
KDInv/KDOrig [8]: 3.46
B2: Z17348 (designed binder)
chain: MGSSHHHHHHLQAEAKYAKEQDAAAHEIRWLPNLTFDQRVAFIHKLARQPEQSSELLSEAKKLSESQAPK

The remaining lines, values behind:

Molecule: Z17348: inventive FcRn binding Z variant; D36R, D37Q, S39E, N52S, D53E (AEAKYAKEQDAAAHEIRWLPNLTFDQRVAFIHKLARQPEQSSELLSEAKKLSESQAPK; Engineered FcRn binding Z variant)
Tm (° C.) [1]: 44 °C
KDInv/KDOrig (human FcRn; (0) prior to stability test): 1.93
ka (human FcRn; [14]): 1.82e+06 M/s
kd (human FcRn; [14]): 0.01 s⁻¹
Kd (human FcRn; (0) prior to stability test, pH 6.0, comparative, not absolute): 5.5 nM
KDInv/KDOrig (human FcRn; (2w) after 2 weeks at 37° C.): 3.46
ka (human FcRn; [15]): 1.28e+06 M/s
kd (human FcRn; [15]): 0.00809 s⁻¹
Kd (human FcRn; (2w) after 2 weeks at 37° C., pH 6.0, comparative, not absolute): 6.3 nM
KD(2w)/KD(0) (human FcRn; [16]): 1.14
effect of scaffold substitutions on the affinity (human FcRn; [17]): more negative effect on the affinity
Kd (human FcRn; range of magnitude): ~1 nM

Molecule: Z02891: original Z variant polypeptide targeting HER2, His6-tagged [reference compound]
Tm (° C.) [1]: 70 °C
ka (human HER2-Fc; (0) prior to stability test): 1.33e+06 M/s
kd (human HER2-Fc; (0) prior to stability test): 7.1e-05 s⁻¹
Kd (human HER2-Fc; [18]): 0.054 nM
KDInv/KDOrig (human HER2-Fc; (0) prior to stability test): 1.0
ka (human HER2-Fc; (2w) after 2 weeks at 37° C.): 1.15e+06 M/s
kd (human HER2-Fc; (2w) after 2 weeks at 37° C.): 7.19e-05 s⁻¹
Kd (human HER2-Fc; [19]): 0.062 nM
KDInv/KDOrig (human HER2-Fc; (2w) after 2 weeks at 37° C.): 1.0
KD(2w)/KD(0) (human HER2-Fc): 1.17

B1: PSI0383: C5 binding polypeptide fused to albumin binding domain; ND to SE in positions 52-53 (protein)
chain: AEAKYAKEVLEAWDEIDRLPNLTIEQWLAFINKLDRQPEQSSELLSEAKKLSESQAPKVEGSLAEAKEAANAELDSYGVSDFYKRLIDKAKTVEGVEALKDAILAALP
modifications: Engineered C5 binding Z variant
Main peak (% of total protein) ([2]; RPC, after 2 weeks at 37° C., 25 mM NaP/125 mM NaCl pH 7.0): 91%
2 weeks, 37° C. Main peak (% of total protein) ([2]; RPC, data from Example 2 repeated in Table 8): 91%
stability when compared with PSI0242 ([2]; conclusion from Table 1, 2 weeks at 37° C.): increased stability
stability after 3 months at 37° C. compared with PSI0242 after 2 weeks [3]: higher proportion of protein in the original form
3 months, 37° C. Main peak (% of total protein) ([3]; RPC): 59%

B3: Z17342 (designed binder)
chain: MGSSHHHHHHLQAEAKYAKEMRNAYWEIALLPNLTNQQKRAFIRKLYRQPEQSSELLSEAKKLSESQAPK
Kd [9]: 1.8 nM
koff [9]: 0.00157 s⁻¹
kon [9]: 894000 M⁻¹ s⁻¹
Kd [10]: 2.3 nM
koff [10]: 0.0015 s⁻¹
kon [10]: 649000 M⁻¹ s⁻¹
KD(2w)/KD(0) [11]: 1.31 ratio
KDInv/KDOrig [12]: 33 ratio
KDInv/KDOrig [13]: 37 ratio
